Numbering of substitutions follows the chain as printed. Names may count otherwise. “And” between values parts separate entries of the source, which are not always exact repeats. Equal entries are not always repeated.
B1: Antibody A (antibody, human IgG1, kappa, L234A L235A)
heavy: not shown
light: DIQMTQSPSSLSASVGDRVTITCGAHENIYHALNWYQQKPGKAPKLLIYGATNLAHGVPSRFSGSGSGTDFTLTISSLQPEDFATYYCQNVLNTPLTFGQGTKVEIKRTVAAPSVFIFPPSDEQLKSGTASVVCLLNNFYPREAKVQWKVDNALQSGNSQESVTEQDSKDSTYSLSSTLTLSKADYEKHKVYACEVTHQGLSSPVTKSFNRGEC
notes: IgG1 with L234A, L235A
B2: Antibody D (antibody, human IgG2, kappa)
heavy: QVQLVQSGAEVKKPGASVKVSCKASGYIFSNYWIQWVRQAPGQGLEWMGEILPGSGSTEYTENFKDRVTMTRDTSTSTVYMELSSLRSEDTAVYYCARYHFGSSPNWYFDVWGQGTLVTVSSASTKGPSVFPLAPCSRSTSESTAALGCLVKDYFPEPVTVSWNSGALTSGVHTFPAVLQSSGLYSLSSVVTVPSSNFGTQTYTCNVDHKPSNTKVDKTVERKCCVECPPCPAPPVAGPSVFLFPPKPKDTLMISRTPEVTCVVVDVSHEDPEVQFNWYVDGVEVHNAKTKPREEQFNSTFRVVSVLTVVHQDWLNGKEYKCKVSNKGLPAPIEKTISKTKGQPREPQVYTLPPSREEMTKNQVSLTCLVKGFYPSDIAVEWESNGQPENNYKTTPPMLDSDGSFFLYSKLTVDKSRWQQGNVFSCSVMHEALHNHYTQKSLSLSPGK
light: B1 light with H26S, H31G, H56D, N93H
notes: IgG2 Fc constant region; also called F100H heavy / N93H light on IgG2 backbone
B3: Control 1 (antibody, human IgG2, kappa)
heavy: QVQLVQSGAEVKKPGASVKVSCKASGYIFSNYWIQWVRQAPGQGLEWMGEILPGSGSTEYTENFKDRVTMTRDTSTSTVYMELSSLRSEDTAVYYCARYFFGSSPNWYFDVWGQGTLVTVSSASTKGPSVFPLAPCSRSTSESTAALGCLVKDYFPEPVTVSWNSGALTSGVHTFPAVLQSSGLYSLSSVVTVPSSNFGTQTYTCNVDHKPSNTKVDKTVERKCCVECPPCPAPPVAGPSVFLFPPKPKDTLMISRTPEVTCVVVDVSQEDPEVQFNWYVDGVEVHNAKTKPREEQFNSTYRVVSVLTVLHQDWLNGKEYKCKVSNKGLPSSIEKTISKAKGQPREPQVYTLPPSQEEMTKNQVSLTCLVKGFYPSDIAVEWESNGQPENNYKTTPPVLDSDGSFFLYSRLTVDKSRWQEGNVFSCSVMHEALHNHYTQKSLSLSLGK
light: B1 light with H26S, H31G, H56D
notes: IgG2 and IgG4 (IgG 2-4); produced in CHO cells; also called control antibody
B4: Antibody E (antibody, human IgG1, kappa, L234A L235A)
heavy: not shown
light: B1 light with H26S, H31G, H56D, N93H
notes: IgG1 Fc constant region; also called F100H heavy / N93H light on IgG1 backbone
B5: Antibody B (antibody, human IgG1, kappa, L234A L235A)
heavy: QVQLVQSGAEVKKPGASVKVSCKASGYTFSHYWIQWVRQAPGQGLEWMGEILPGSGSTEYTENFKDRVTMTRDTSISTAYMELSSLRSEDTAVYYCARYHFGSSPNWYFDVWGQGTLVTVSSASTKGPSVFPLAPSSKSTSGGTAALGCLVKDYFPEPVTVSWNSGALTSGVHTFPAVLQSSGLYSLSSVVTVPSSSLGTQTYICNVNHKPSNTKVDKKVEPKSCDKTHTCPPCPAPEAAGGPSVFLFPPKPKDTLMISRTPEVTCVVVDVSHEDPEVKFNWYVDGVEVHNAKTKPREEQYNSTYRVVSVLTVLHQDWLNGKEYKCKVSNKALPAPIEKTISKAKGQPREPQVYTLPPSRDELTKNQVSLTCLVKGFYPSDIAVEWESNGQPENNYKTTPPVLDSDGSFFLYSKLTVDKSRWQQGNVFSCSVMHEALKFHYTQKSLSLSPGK
light: B1 light
notes: IgG1 with L234A, L235A, H433K, N434F
B6: Antibody C (antibody, human IgG1, kappa, L234A L235A, V domains shown)
VH: QVQLVQSGAEVKKPGASVKVSCKASGYTFSHYWIQWVRQAPGQGLEWMGEILPGSGSTEYTENFKDRVTMTRDTSISTAYMELSSLRSEDTAVYYCARYHFGSSPNWYFDVWGQGTLVTVSS
VL: DIQMTQSPSSLSASVGDRVTITCGAHENIYGALNWYQQKPGKAPKLLIYGATNLAHGVPSRFSGSGSGTDFTLTISSLQPEDFATYYCQNVLNTPLTFGQGTKVEIKR
notes: as for B5

Key:
[1] = target: T1, human complement component 5 (C5) (human, UniProt P01031 19-1676); test: cell-based or functional assay
[2] = target: T2, cynomolgus monkey C5 (cynomolgus monkey, UniProt A0A2K5U1T1 19-1676); test: mean affinity for cC5, Biacore
T2 construct: also called cC5; cynomolgus C5

[3] = target: T1, human complement component 5 (C5); test: Biacore, pH 7.4, against Control 1
Protocol: (§1) The kinetics of binding of purified human C5 (hC5) or hC5 in human serum to immobilized mAbs (via capture with anti-Fc antibodies) were measured by Biacore® assays over a pH range from 7.4 to 5.5. Binding was tested at pH 7.4, 7.0, 6.5, 6.0, and 5.5.

[4] = target: T1, human complement component 5 (C5); test: Biacore; KD at pH 5.5 against KD at pH 7.4
Protocol: as §1

[5] = target: T1, human complement component 5 (C5); test: Biacore, mAb captured via anti-Fc, hC5, pH 5.5
Protocol: as §1

[6] = target: T1, human complement component 5 (C5); test: Biacore, mAb captured via anti-Fc, hC5, pH 7.4
Protocol: as §1

[7] = target: T3, human neonatal Fc receptor (FcRn) (human, UniProt P55899 24-297; P61769 21-119); test: Biacore, immobilized recombinant hFcRn, pH 5.5; pH 5.5
T3 construct: also called hFcRn; recombinant FcRn
T3 sequence (P55899 24-297 limits assumed, chain 1 of 2): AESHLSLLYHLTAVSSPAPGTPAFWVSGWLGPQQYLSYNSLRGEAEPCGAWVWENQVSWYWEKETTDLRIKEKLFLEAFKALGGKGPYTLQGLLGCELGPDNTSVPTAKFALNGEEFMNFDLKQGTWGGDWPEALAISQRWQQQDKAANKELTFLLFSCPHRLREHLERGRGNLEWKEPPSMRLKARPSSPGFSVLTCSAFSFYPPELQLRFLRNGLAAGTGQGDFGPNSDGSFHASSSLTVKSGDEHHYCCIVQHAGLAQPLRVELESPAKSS
T3 sequence (P61769 21-119 limits assumed, chain 2 of 2): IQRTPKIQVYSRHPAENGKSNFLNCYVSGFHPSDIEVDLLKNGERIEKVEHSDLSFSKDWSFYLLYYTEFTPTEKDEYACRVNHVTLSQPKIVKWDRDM
Protocol: (§2) Kinetics of binding to immobilized recombinant FcRn was determined for mAbs at pH 7.4 and pH 5.5 in Biacore® assays.

[8] = target: T3, human neonatal Fc receptor (FcRn); test: Biacore, immobilized recombinant hFcRn, pH 6.0; pH 6.0
Protocol: as §2

[9] = target: FcγRIIIA (UniProt P08637 17-208, limits assumed); test: binding affinity to Fcγ receptor, method not stated; range 1000-31.25 nM
FcγRIIIA, sequence (P08637 17-208 limits assumed): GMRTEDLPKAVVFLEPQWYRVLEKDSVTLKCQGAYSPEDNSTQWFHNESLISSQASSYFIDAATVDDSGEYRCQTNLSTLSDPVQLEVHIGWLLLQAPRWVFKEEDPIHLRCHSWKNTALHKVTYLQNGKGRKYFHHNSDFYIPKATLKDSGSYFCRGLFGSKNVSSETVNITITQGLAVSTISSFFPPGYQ

[10] = target: T1, human complement component 5 (C5); test: Kd at pH 5.5 against Kd at pH 7.4
[11] = target: T1, human complement component 5 (C5); test: C5 binding affinity at pH 5.5; method not named in Example 2
[12] = target: T1, human complement component 5 (C5); test: C5 binding affinity at pH 7.4; method not named in Example 2; pH 7.4; IgG2 Fc
[13] = target: T4, baboon C5 (baboon); test: Biacore, antibody captured, baboon serum as analyte, pH 7.4; estimated, C5 titer assumed
T4 construct: also called C5 in baboon serum
Protocol: (§3) Biacore® binding assays were performed with antibody captured on the chip and sera from 16 different mammalian species as the analyte that is flowed over the chip.

[14] = target: T5, African Green monkey C5 (African Green monkey); test: Biacore, antibody captured, African Green monkey serum as analyte, pH 7.4; estimated, C5 titer assumed
T5 construct: also called C5 in African Green monkey serum
Protocol: as §3

[15] = target: T1, human complement component 5 (C5); test: C5 binding affinity at pH 7.4; method not named in Example 2
[16] = target: T2, cynomolgus monkey C5; test: KD for cC5 of Antibody B against that of Control 1
[17] = target: T3, human neonatal Fc receptor (FcRn); test: Biacore, immobilized recombinant hFcRn, pH 5.5
Protocol: as §2

[18] = target: T3, human neonatal Fc receptor (FcRn); test: Biacore, immobilized recombinant hFcRn, pH 6.0
Protocol: as §2

[19] = target: T2, cynomolgus monkey C5; test: Biacore, pH 7.4, cynomolgus against human (FIG. 8G)
Protocol: as §3
To validate the binding as specific to C5, pull-down experiments were performed on sera from cynomolgus monkeys. Size exclusion chromatography was used to purify the resulting cynomolgus C5, which was also used to reconfirm binding on biacore.

[20] = target: T1, human complement component 5 (C5); test: Biacore, antibody captured, purified C5, pH 7.4
[21] = target: T1, human complement component 5 (C5); test: Biacore, mAb captured via anti-Fc, purified hC5, pH 5.5
Protocol: (§4) Binding of hC5 to immobilized mAbs (via capture with anti-Fc antibodies) were measured by Biacore® assays at 7.4 and pH 5.5.

[22] = target: T1, human complement component 5 (C5); test: Biacore, mAb captured via anti-Fc, purified hC5, pH 7.4
Protocol: as §4

[23] = target: T1, human complement component 5 (C5); test: Biacore, antibody captured, human serum as analyte, pH 7.4
Protocol: as §3

[24] = target: T2, cynomolgus monkey C5; test: Biacore, antibody captured, cynomolgus serum as analyte, pH 7.4
Protocol: as §3

[25] = target: T3, human neonatal Fc receptor (FcRn); test: Biacore, immobilized recombinant hFcRn, pH 7.4; range 2000-15.6 nM
Protocol: as §2

[26] = target: FcγRI (UniProt P12314 16-288, limits assumed); test: binding affinity to Fcγ receptor, method not stated; range 62.5-0.48 nM
FcγRI, sequence (P12314 16-288 limits assumed): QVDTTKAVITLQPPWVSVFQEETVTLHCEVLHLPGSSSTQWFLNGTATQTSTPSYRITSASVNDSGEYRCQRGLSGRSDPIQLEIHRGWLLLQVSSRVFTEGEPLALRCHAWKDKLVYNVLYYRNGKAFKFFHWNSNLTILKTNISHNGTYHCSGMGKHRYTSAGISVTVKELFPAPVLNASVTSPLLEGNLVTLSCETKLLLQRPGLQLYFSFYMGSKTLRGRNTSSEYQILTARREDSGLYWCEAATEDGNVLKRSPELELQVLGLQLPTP

[27] = target: T6, rhesus monkey C5 (rhesus monkey, UniProt F7GHV1 19-1676); test: Biacore, antibody captured, rhesus serum as analyte, pH 7.4; estimated, C5 titer assumed
T6 construct: also called C5 in rhesus serum
T6 sequence (F7GHV1 entry or part of it): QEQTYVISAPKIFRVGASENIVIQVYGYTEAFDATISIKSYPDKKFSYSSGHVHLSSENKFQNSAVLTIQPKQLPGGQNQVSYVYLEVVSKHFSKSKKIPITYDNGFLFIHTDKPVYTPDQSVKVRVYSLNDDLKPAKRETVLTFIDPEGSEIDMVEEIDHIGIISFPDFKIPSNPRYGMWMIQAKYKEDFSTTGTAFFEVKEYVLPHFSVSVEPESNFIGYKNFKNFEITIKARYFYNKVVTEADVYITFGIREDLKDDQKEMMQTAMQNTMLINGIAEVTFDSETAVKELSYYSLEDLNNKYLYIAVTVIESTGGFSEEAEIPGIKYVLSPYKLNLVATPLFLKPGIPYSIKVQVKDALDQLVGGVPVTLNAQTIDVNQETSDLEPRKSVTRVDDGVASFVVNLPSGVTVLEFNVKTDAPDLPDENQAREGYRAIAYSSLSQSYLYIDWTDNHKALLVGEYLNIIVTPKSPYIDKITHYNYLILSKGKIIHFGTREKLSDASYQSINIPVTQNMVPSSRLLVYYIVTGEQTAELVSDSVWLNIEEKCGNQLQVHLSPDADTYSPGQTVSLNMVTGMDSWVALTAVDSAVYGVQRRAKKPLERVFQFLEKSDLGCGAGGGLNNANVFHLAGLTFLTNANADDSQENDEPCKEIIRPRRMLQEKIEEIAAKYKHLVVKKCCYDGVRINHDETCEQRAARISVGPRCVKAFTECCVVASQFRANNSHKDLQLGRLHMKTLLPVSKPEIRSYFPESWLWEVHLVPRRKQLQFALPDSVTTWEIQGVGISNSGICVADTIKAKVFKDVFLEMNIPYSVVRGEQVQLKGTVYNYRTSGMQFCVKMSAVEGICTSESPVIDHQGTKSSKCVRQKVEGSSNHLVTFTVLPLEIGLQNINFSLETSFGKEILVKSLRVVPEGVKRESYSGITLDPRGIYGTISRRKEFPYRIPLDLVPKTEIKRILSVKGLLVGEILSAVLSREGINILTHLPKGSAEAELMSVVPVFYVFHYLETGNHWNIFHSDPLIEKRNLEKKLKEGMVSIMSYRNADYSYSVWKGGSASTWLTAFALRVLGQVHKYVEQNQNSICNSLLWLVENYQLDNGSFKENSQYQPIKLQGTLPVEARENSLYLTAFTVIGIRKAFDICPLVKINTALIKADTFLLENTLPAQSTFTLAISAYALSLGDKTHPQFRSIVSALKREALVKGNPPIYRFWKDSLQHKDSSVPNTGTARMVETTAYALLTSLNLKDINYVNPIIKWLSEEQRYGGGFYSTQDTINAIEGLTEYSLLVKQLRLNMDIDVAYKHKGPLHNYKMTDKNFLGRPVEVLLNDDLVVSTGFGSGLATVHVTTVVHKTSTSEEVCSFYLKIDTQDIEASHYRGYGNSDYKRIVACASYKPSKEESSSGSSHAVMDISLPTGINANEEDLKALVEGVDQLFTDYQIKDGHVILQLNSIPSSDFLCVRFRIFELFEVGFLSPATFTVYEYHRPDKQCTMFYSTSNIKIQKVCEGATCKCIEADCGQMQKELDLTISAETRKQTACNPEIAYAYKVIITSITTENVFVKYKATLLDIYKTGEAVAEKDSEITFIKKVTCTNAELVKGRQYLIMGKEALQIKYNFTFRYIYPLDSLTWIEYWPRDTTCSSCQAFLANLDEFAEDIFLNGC
Protocol: as §3

[28] = target: T7, CD-1 mouse C5 (CD-1 mouse, UniProt P06684 19-1680); test: Biacore, antibody captured, CD-1 mouse serum as analyte, pH 7.4; estimated, C5 titer assumed
T7 construct: also called C5 in CD-1 mouse serum; CD1 mice
T7 sequence (P06684 19-1680 limits assumed): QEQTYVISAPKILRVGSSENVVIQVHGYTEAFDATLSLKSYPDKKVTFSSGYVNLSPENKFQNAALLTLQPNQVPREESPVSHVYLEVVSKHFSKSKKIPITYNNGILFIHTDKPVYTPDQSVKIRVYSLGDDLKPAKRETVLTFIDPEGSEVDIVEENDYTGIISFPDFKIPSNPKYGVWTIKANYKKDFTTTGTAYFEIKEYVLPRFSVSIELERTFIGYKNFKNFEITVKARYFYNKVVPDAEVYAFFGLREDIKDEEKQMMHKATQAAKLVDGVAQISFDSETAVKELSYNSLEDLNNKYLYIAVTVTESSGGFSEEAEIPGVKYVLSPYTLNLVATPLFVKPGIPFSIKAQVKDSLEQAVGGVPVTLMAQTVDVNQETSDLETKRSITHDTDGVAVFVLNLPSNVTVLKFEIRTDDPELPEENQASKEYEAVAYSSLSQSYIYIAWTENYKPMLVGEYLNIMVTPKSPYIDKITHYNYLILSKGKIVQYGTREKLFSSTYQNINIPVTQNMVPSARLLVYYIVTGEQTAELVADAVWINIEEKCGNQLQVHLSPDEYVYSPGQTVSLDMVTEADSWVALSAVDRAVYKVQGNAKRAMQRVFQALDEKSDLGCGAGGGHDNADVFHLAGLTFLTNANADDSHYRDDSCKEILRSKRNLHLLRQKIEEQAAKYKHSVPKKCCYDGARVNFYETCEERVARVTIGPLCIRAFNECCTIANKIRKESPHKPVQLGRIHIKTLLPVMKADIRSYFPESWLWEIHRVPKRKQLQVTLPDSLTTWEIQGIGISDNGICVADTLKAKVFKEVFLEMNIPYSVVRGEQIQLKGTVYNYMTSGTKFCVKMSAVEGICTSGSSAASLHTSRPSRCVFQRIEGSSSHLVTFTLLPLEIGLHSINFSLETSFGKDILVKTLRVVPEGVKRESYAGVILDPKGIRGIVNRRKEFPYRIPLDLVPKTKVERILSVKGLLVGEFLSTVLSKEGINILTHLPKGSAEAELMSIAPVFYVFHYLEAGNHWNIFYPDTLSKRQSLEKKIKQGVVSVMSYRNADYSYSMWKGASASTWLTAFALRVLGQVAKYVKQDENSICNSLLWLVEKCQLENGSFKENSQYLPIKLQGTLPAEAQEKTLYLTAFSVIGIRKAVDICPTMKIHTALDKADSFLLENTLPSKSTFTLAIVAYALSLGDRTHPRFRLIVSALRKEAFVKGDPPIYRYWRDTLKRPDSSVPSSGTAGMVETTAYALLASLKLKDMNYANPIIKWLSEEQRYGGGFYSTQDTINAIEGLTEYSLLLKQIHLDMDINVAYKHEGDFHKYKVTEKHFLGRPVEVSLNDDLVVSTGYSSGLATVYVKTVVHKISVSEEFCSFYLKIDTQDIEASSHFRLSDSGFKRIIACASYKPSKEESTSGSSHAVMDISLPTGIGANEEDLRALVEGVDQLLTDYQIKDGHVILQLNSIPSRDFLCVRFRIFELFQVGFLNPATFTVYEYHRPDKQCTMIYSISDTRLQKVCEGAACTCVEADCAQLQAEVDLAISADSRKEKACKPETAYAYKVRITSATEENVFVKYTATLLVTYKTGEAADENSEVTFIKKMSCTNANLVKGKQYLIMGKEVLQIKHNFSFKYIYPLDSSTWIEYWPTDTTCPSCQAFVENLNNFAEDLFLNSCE
Protocol: as §3

[29] = target: T3, human neonatal Fc receptor (FcRn); test: Biacore, immobilized recombinant hFcRn, pH 7.4; range 50-0.39 nM; pH 7.4; concentration range 50-0.39 nM
Protocol: as §2

Binder | IC50 for inhibition of antibody-sensitized lysis of chicken RBC by human serum [1] | fold reduction of the C5 binding affinity at pH 7.4 as compared to Control 1 [3] | KD fold-change [4] | Kd [5] | Kd [6] | Kd [7] | Kd [8] | Kd [9] | Fold change in Kd (pH 5.5 vs. pH 7.4) [10] | Kd [11] | Kd [13] | Kd [14] | further results
B1 | 3 µg/mL | < 3 fold | 332 fold | 113 nM | 0.34 nM | 5.9 nM | 11.3 nM | 7420 nM |  |  |  |  | Kd [2]: 1.65 nM
B2 |  |  |  |  |  |  |  |  | 13.4 fold | 13.9 nM |  |  | Kd [12]: 1.04 nM
B3 |  |  |  |  |  | 125 nM | 125 nM |  |  |  | 16.2 nM | 27.5 nM | 
B4 |  |  |  |  |  |  |  |  | 48.5 fold | 34.9 nM |  |  | Kd [15]: 0.72 nM
B5 | 3 µg/mL | < 3 fold | 414 fold | 145 nM | 0.35 nM |  |  | 9620 nM |  |  | 2.6 nM | 3.2 nM | fold improvement in affinity against Control 1 [16]: 8 fold; Kd [17]: 0.13 nM; Kd [18]: 0.24 nM; fold lower affinity than for human C5 [19]: 5.7 fold; Kd [20]: 0.34 nM; fold lower affinity than BNJ441 at pH 5.5 [21]: 10 fold; fold greater affinity than BNJ441 at pH 7.4 [22]: 3 fold; Kd [23]: 0.33 nM; Kd [24]: 1.9 nM; Kd [25]: 191 nM; Kd [26]: 94 nM and 75 nM and 62 nM; Kd [27]: 3.19 nM; Kd [28]: 5.3 nM; Kd [29]: 108 nM
B6 |  | < 3 fold | 142 fold | 37 nM | 0.26 nM |  |  |  |  |  |  |  | 

Reference: patent publication US20190085095A1 (SHIRE HUMAN GENETIC THERAPIES, published 2019)
